Sequences and labels used below:
B1: SC014 (antibody, human IgG1, lambda, V domains shown)
VH: EVQLVQSGGGLVQPGRSLRLSCAASGFTFDDYAMHWVRQAPGKGLEWVSGISWNSGSIGYADSVKGRFAISRDNAKNSLYLQMNSLRAEDTALYYCAKAWNDDAFDIWGQGTMVTVSS
VL: QSVVTQPPSVSGAPGQRVTVSCTGSNSNIGAGYDVHWYQQLPGTAPKLLIYGSNNRPSGVPDRFSASRSGTSASLAITGLQAEDEAEYYCQTYDTGLSGPGVVFGGGTKVTVLS
notes: also called adenosine-clamping antibody SC014
B2: SC032 (antibody, human IgG1, kappa, V domains shown)
VH: QVQLQQSGAEVKKPGSSVKVSCKASGGTFSSYAISWVRQAPGQGLEWMGRIIPILGIANYAQKFQGRVTITADKSTSTAYMELSSLRSEDTAVYYCAREGLTPYYYGSELGNGMDVWGQGTTVTVSS
VL: DIQLTQSPSSLSTFVGDRVTITCRTSQNINSYLNWYQQKPGKAPKLLISTTSNLQSGVPSRFSGSGSGTDFTLTINNLQPEDFAIYYCQQTKSFPLTFGGGTKLEIKR
notes: also called adenosine-clamping antibody SC032
B3: SC016 (antibody, human IgG1, lambda, V domains shown)
VH: EVQLVQSGGGLVQPGRSLRLSCAASGFTFDNHAMHWVRQAPGKGLEWVSRINWNSGGIDYADSVKGRFTISRDNAKNSLYLQMNSLRAEDTALYYCVKDRGSGWYDAFDLWGQGTMVTVSS
VL: SYELTQPPSVSVAPGQTTRIACGGDSVGSESVHWYQQRPGQAPVLVISYDSDRPSGIPERFSGSKSGNTATLTISRVEAGDEADYYCQVWNSASDHWVFGGGTKLTVLG
notes: also called adenosine-clamping antibody SC016
B4: SC044 (antibody, human IgG1, lambda, V domains shown)
VH: not shown
VL: QSVLTQPPSVSGAPGQRVTISCTGSSSNIGAGYDVHWYQQLPGTAPKLLIYGNSNRPSGVPDRFSGSKSGTSASLAITGLQAEDEADYYCQSYDDSRSAVVFGGGTKLTVLG
notes: also called adenosine-clamping antibody SC044
B5: SC045 (antibody, human IgG1, lambda, V domains shown)
VH: QVQLVESGGGLVQPGGSLRLSCAASGFTFSDHYMDWVRQAPGKGLEWVGRTRNKANSYTTEYAASVKGRFTISRDDSKNSLYLQMNSLKTEDTAVYYCARGPTLAYIGYMDYWGQGTLVTVSS
VL: B4 VL with D95G, R97L, A99V
notes: also called adenosine-clamping antibody SC045
B6: SC002 (antibody, human IgG1, lambda, V domains shown)
VH: EVQLVQSGAEVKKPGASVKVSCKASGYTFTSYGISWVRQAPGQGLEWMGWISAYNGNTNYAQKLQGRVTMTTDTSTSTAYMELRSLRSDDTAVYYCARVSSGSQPDPPYYYYYGMDVWGQGTMVTVSS
VL: QSVLTQPASVSGSPGQSITISCTGTSSNVESYNLVSWYQQHPGKAPKFIIYEGTRRPSGISNRFSGANSGNAASLTISGLQAEDEADYYCLSYVPSRRRHVFGTGTKVTVLS
notes: also called adenosine-clamping antibody SC002
B7: SC019 (antibody, human IgG1, lambda, V domains shown)
VH: EVQLVESGGGLVKPGGSLRLSCAASGFTFSDYYMSWIRQAPGKGLEWVSYISSSGSTIYYADSVKGRFTISRDNAKNSLYLQMNSLRAEDTAVYYCARASPNVNEGAFDIWGQGTMVTVSS
VL: QSVLTQPPSMSAAPGQKVTISCSGSGSNIGSSYVSWYQQLPGKAPRLLIYDNNKQVSWVPDRFSGSKSGTSASLVISGLQTGDEADYYCGTWDRSLSAGVFGGGTKVTVLG
notes: also called adenosine-clamping antibody SC019
B8: SC003 (antibody, human IgG1, lambda, V domains shown)
VH: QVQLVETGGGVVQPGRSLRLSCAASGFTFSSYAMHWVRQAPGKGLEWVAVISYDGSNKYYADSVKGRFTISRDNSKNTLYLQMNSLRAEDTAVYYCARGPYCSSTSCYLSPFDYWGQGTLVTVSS
VL: QSVLTQPPSVSAAPGQKVTISCSGNTSNIGNNYVSWYQQLPGTAPKLLIYRNSDRPSGVPDRFSGSKSGTSASLAITGLQAEDEADYYCQSYDTSLTAVIFGGGTKLTVLG
notes: also called adenosine-clamping antibody SC003
B9: SC001 (antibody, human IgG1, lambda, V domains shown)
VH: QVQLVQSGGGVVQPGRSLRLSCAASGFTFSSYAMHWVRQAPGKGLEWVAVISYDGSNKYYADSVKGRFTISRDNSKNTLYLQMNSLRAEDTAVYYCARVYQGGATPYYYYGMDVWGQGTMVTVSS
VL: SYELTQPPSASGTPGQRVTVSCSGSTSNIGNHAVNWYQQLPGTAPKLLIYTNDQRPSGVPNRFSGSKSGISASLAISGLQSEDEADYYCSAWDDSLIGYVFGAGTKVTVLG
notes: also called adenosine-clamping antibody SC001
B10: SC048 (antibody, human IgG1, lambda, V domains shown)
VH: QVQLQESGGGVVQPGRSLRLSCAASGFTFSSYAMHWVRQAPGKGLEWVAVISYDGSNKYYADSVKGRFTISRDNSKNTLYLQMNSLRAEDTAVYYCAKGYSYGPGYFFDYWGQGTLVTVSS
VL: SSELTQPPSVSVSPGQTANISCSADKLGGKYVSWYQQKPGQSPVLVMYQDKKRPSGIPERLSGSGSGNTATLTISGTQAMDEATYYCQTWDGRSLFFGGGTRLTVLS
notes: also called adenosine-clamping antibody SC048
B11: SC034 (antibody, human IgG1, lambda, V domains shown)
VH: QVQLQQSGAEVKKPGASVKVSCKASGYTFTSYGISWVRQAPGQGLEWMGWISAYNGNTNYAQKLQGRVTMTTDTSTSTAYMELRSLRSDDTAVYYCARDYHSTRPDWPPFPYYYYYGMDVWGQGTTVTVSS
VL: QSVLTQPHSVSESPGKTVTISCTRSSGRIAANNVQWYQQRPGSAPTTIIYEDNRRPSGVPDRFSGSIDGSSNSASLTISGLKPEDEADYYCQSYVSTTVVFGGGTKLTVLG
notes: also called adenosine-clamping antibody SC034
B12: CLA0022 Fab fragment (from CLA0022VH-F760mnP17/CLA0022VL-k0C) (Fab, V domains shown)
VH: QSLEESGGDLVKPGASLTLTCTASGFSFSSSYWIYWVRQAPGKGLEWIACIYAGVNDITYYANWAKGRFTISKTSSTTVTLQMTSLTAADTATYFCAKGSPDDAFHSWGPGTLVTVSS
VL: DVVMTQTPASVSEPVGGTVTIKCQASQSIGNYLAWYQQKPGQPPKLLIYYASNLASGVSSRFKGSRSGTEFTLTINDLECADAATYYCQCAYYDSVYVTFGGGTEVVVKR
notes: Fab prepared from the full antibody with the Pierce Fab Preparation Kit; Rabbit-derived variable regions on human constant regions; also called clamping antibody CLA0022
B13: CLA0028 Fab fragment (from CLA0028VH-F760mnP17/CLA0028VL-k0C) (Fab, V domains shown)
VH: B12 VH with V55S, N56T, D57S, I58S, N63S, S100G
VL: B12 VL with N76S, D94E, V96S
notes: also called clamping antibody CLA0028
B14: CLA0311 Fab fragment (from CLA0311VH-F760mnP17/CLA0311VL-k0C) (Fab, V domains shown)
VH: QSLEESGGGLVQPEGSLTLTCTASGFSLSSSYWICWVRQAPGKGLEWIGCIYTGSGGATHYASWAKGRFTISKTSSTTVTLQMTSLTAADTATYFCASAESGYYAGFFFAPWGPGTLVTVSS
VL: AFELTQTPSSVEAAVGGTVTIKCQASESIYSGLAWYKQKPGQPPKLLIYSASTLASGVSSRFKGSGSGTQFTLTISDLECADAATYYCQSYYGGSVTGYNTFGGGTEVVVKR
notes: Fab prepared from the full antibody with the Pierce Fab Preparation Kit; also called clamping antibody CLA0311

These results are taken from US20240190960A1 (Chugai, published 2024).

Substitutions are numbered along the chain they refer to.

Sequence of CD3 antibody CE115HA056 (CE115HA056-F760mnP17/GLS3000-k0) (heavy, as listed by the source, chain 1 of 2): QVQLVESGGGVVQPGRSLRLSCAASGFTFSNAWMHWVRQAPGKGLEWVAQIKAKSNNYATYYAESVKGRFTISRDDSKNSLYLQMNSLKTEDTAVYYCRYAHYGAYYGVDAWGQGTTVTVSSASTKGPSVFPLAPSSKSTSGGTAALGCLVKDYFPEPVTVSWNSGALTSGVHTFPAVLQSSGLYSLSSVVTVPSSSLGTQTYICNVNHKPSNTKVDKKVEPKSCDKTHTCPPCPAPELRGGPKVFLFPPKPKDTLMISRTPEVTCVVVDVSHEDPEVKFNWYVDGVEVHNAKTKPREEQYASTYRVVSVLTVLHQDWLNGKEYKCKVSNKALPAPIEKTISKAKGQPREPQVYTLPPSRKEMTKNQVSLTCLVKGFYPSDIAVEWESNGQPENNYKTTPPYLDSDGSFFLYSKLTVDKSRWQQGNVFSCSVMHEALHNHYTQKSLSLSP
Sequence of CD3 antibody CE115HA056 (CE115HA056-F760mnP17/GLS3000-k0) (light, as listed by the source, chain 2 of 2): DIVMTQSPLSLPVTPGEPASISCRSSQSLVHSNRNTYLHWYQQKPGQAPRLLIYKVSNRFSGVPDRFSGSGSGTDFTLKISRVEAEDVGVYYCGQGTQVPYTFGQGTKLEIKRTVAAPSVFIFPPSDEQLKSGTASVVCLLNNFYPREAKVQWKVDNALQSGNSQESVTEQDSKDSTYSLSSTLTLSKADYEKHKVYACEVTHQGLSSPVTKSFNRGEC
T1 sequence (VH, as listed by the source, chain 1 of 2): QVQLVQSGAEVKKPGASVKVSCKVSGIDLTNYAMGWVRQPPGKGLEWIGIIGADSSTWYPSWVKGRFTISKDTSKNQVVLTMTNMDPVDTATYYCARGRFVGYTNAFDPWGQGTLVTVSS
T1 sequence (V domain, as listed by the source, chain 2 of 2): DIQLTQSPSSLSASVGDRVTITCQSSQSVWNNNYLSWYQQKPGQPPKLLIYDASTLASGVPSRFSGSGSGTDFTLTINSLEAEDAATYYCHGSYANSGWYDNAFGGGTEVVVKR
Sequence of CD3 antibody CE115HA146 (CE115HA146-F760mnP17/GLS3000-k0) (heavy, as listed by the source, chain 1 of 2): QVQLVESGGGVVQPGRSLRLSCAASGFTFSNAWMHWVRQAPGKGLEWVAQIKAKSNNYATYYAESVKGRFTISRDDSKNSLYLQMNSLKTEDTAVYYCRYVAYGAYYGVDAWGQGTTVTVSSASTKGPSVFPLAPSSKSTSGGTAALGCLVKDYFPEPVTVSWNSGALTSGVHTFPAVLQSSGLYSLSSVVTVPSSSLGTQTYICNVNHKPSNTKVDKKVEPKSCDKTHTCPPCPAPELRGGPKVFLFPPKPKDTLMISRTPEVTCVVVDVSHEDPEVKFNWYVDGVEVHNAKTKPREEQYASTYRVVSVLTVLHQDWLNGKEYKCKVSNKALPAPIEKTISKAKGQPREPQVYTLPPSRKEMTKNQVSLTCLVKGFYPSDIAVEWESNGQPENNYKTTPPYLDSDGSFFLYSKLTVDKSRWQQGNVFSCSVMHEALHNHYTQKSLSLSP
T5 sequence (VH, as listed by the source, chain 1 of 2): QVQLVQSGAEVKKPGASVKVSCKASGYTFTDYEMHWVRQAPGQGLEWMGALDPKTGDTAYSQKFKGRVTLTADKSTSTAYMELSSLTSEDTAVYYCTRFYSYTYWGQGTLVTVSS
T5 sequence (VL, as listed by the source, chain 2 of 2): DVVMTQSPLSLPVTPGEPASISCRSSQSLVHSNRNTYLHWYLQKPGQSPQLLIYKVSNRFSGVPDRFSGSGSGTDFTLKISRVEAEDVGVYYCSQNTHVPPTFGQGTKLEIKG
Sequence of CD3 antibody CE115HA000 (CE115HA000-F760mnP17/GLS3000-k0) (VH, as listed by the source, chain 1 of 2): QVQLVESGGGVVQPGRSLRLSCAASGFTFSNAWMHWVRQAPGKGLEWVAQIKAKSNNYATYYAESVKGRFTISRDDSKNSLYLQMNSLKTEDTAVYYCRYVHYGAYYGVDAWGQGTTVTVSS
Sequence of CD3 antibody CE115HA000 (CE115HA000-F760mnP17/GLS3000-k0) (VL, as listed by the source, chain 2 of 2): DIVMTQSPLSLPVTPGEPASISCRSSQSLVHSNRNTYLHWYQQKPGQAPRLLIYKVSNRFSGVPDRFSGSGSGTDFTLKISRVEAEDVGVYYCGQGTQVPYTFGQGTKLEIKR
T2 sequence (heavy, as listed by the source, chain 1 of 2): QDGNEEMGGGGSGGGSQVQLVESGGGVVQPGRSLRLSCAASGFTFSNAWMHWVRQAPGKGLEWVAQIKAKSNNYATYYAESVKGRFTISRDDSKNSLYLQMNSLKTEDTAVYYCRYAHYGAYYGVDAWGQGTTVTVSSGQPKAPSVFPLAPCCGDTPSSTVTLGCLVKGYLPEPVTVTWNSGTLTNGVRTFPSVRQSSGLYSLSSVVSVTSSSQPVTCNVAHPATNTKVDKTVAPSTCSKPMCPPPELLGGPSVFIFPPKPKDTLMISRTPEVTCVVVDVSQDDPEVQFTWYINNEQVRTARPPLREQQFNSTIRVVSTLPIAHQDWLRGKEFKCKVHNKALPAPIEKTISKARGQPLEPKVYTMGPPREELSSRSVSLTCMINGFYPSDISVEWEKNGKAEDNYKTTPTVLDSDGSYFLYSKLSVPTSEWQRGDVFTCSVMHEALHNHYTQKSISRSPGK
T2 sequence (light, as listed by the source, chain 2 of 2): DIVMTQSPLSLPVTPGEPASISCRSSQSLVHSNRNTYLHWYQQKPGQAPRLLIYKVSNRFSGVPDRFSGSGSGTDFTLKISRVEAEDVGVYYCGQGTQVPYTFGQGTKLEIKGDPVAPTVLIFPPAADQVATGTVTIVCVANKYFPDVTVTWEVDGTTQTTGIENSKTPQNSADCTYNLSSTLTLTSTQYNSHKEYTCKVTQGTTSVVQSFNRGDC

One experiment has as its target T1, adenosine-binding antibody SMB0002hH-G1m3/SMB0002hL-k0a.
T1 construct: also called biotinylated SMB0002hH-G1m3/SMB0002hL-k0
Nature of the experiment: BLI (OctetHTX), target on streptavidin sensor, antibody 10 ug/mL, 30 C, with and without adenosine. The protocol: Evaluation of the binding of each prepared and purified antibody to a complex of adenosine with an adenosine-binding antibody was performed using OctetHTX (ForteBio). Specifically, biotinylated SMB0002Fab prepared by the method described in Example 9, which was prepared with TBS or adenosine/TBS or SMB0002hH-G1m3/SMB0002hL-k0a biotinylated with EZ-Link Sulfo-NHS-SS-Biotin was bound to Dip and Read™ Streptavidin (SA) Biosensors (ForteBio). Subsequently, each purified antibody prepared at 10 μg/mL using TBS or adenosine/TBS was allowed to act, and the binding at 30° C. was evaluated.
With B1, the binding result was “binds”.
Still for that read-out and setting: then B2, with “binds”; and B3, with “binds”; and B4, with “binds”.
On the same count and under the same terms, then B5, with “binds”.
Still for that read-out and setting: next, B6: “binds”; B7: “binds”; B8: “binds”.
In the case of B9, the binding result was “binds”.
Same read-out and setting: next, B10: “binds”; B11: “binds”.

Another experiment addresses T2, CD3ε epitope-fused CE115HA056 (CE115HAGP12-rabIgG/GLS3000-rabk).
T2 construct: rabbit constant regions; also called CE115HAPG12
The experiment is described as follows: SPR (Biacore T200), ligand captured on protein A, Fab 0-400 nM as analyte, 37 C. The protocol: (§1) SuRe protein A (GE Healthcare) prepared at 25 μg/mL using Acetate4.5 (GE Healthcare) was immobilized on sensor chip CM4 at approximately 1000 RU per flow cell using an amine coupling kit (GE Healthcare).
(§2) The sensor chip was regenerated by passing Glycine1.5 and 25 mM NaOH, each at a flow rate of 30 μL/min for 15 seconds. The dissociation constant KD (M) was calculated based on the association rate constant ka (1/Ms) and the dissociation rate constant kd (1/s), which are kinetic parameters calculated from the sensorgram obtained by the measurement. Biacore T200 Evaluation Software (GE Healthcare) was used for calculation of each parameter.
A general note: SPR reads the build-up and loss of mass on a sensor chip optically.
In general, Kd refers to the free concentration of one partner at which half of the binding sites on the other are occupied at equilibrium, for simple one-to-one binding. A lower Kd goes with higher affinity. The molecule B12 displayed a Kd of 14 nM. This lies in the double-digit nanomolar range.
As to B13, the affinity, expressed as Kd, was 74 nM.

The target of the next experiment is T3, CD3ε epitope-fused CE115HA146 (CE115HAGP13-rabIgG/GLS3000-rabk).
T3 construct: stands for the antigen/antibody complex; Rabbit constant regions; also called CE115HAPG13
T3 sequence (heavy, as listed by the source, chain 1 of 2): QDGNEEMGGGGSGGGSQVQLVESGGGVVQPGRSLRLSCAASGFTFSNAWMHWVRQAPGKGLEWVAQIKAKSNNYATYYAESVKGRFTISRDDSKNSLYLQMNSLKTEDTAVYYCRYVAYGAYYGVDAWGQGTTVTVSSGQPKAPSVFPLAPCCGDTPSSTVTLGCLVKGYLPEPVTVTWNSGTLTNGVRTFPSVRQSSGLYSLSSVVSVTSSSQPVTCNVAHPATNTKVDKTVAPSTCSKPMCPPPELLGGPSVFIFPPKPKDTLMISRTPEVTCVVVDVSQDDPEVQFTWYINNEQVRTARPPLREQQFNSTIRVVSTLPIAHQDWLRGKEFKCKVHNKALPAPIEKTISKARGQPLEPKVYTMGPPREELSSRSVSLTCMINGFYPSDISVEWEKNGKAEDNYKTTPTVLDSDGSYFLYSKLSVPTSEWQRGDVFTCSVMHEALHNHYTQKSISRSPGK
The experiment is described as above. The method, then:
as §1, §2
B12 registered a dissociation constant Kd of 17 nM.
Same read-out and setting: then B13, with 78 nM.

A further experiment has as its target CD3 antibody CE115HA000 (CE115HA000-F760mnP17/GLS3000-k0). Nature of the experiment: SPR (Biacore), 37 C; ligand antibody captured on SuRe protein A chip (1000 RU), Fab as analyte at 100 nM for 180 s; amount of binding per 1 RU of ligand. The protocol:
as §1
(§3) First, to evaluate the binding specificity of the clamping antibodies, a ligand was reacted at 37° C. for 60 seconds at a flow rate of 10 μL/min to capture 1000 RU, and an analyte prepared at 100 nM was allowed to act for 180 seconds at a flow rate of 30 μL/min, and the amount of binding was measured.
Turning to B12, the binding result is “no binding (tested: 100 nM)”.
Same read-out and setting: then B13, with “no binding (tested: 100 nM)”; and B14, with “no binding (tested: 100 nM)”.

A further experiment addresses CD3 antibody CE115HA056 (CE115HA056-F760mnP17/GLS3000-k0). Described as above. The method, then:
as §1, §3
For the molecule B12, the binding result is on record as “no binding (tested: 100 nM)”.
Same read-out and setting: then B13, with “no binding (tested: 100 nM)”.
Still for that read-out and setting: next, B14: “no binding (tested: 100 nM)”.

In another experiment the target is T4, negative control IC17 (IC17Hdk-F760mnP17/IC17L-k0).
T4 construct: also called anti-KLH antibody
T4 sequence (VH, as listed by the source, chain 1 of 2): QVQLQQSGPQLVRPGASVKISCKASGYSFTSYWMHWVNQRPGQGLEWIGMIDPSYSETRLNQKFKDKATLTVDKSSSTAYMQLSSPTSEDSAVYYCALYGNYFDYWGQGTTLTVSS
T4 sequence (VL, as listed by the source, chain 2 of 2): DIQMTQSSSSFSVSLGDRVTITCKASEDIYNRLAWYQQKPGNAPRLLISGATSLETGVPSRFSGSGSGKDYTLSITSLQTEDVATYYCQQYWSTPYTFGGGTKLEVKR
The description is as above. The method, then:
as §1, §3
B12: the binding result is “no binding (tested: 100 nM)”.
On the same count and under the same terms, then B13, with “no binding (tested: 100 nM)”.
Same read-out and setting: then B14, with “no binding (tested: 100 nM)”.

Another experiment has as its target T5, CD3ε epitope-fused GPC3 antibody (hGC33VHGP01-rabCH1hG1m/hGC33VL-rabk).
T5 construct: control for recognition of the peptide alone
The experiment is described as above. The protocol: as §1, §3
For B12, the binding result is given as “no binding (tested: 100 nM)”.
Turning to B13, the binding result is listed as “no binding (tested: 100 nM)”.
The same measure, in the same setting: then B14, with “no binding (tested: 100 nM)”.

The next experiment addresses CD3 antibody CE115HA146 (CE115HA146-F760mnP17/GLS3000-k0). Described as above. The method, then:
as §1, §3
In the case of B12, the binding result is “no binding (tested: 100 nM)”.
The same measure, in the same setting: next, B13: “no binding (tested: 100 nM)”.
For B14, the binding result is reported as “no binding (tested: 100 nM)”.
